Source: article PMC11161652, “ASXLs binding to the PHD2/3 fingers of MLL4 provides a mechanism for the recruitment of BAP1 to active enhancers” (Nature Communications, 2024)
Positions count from the first letter of the chain named.

Legend:
Details in all cases: both partners purified
[1] = biological target: T1, PHD2 and PHD3 fingers of human MLL3 (aa 342-439) (human, UniProt Q8NEZ4 342-439); assay: other fluorescence titration; tryptophan fluorescence, 25 °C; 1.0 µM MLL4 PHD2/3 or MLL3 PHD2/3 with increasing peptide; excitation 295 nm; 20 mM Tris pH 7.2, 150 mM NaCl, 1 mM TCEP, 0.02% Tween20; average of three measurements
T1 construct: PHD2 and PHD3 fingers of human MLL3 (KMT2C), aa 342-439; 15N-labelled for NMR titrations; also used unlabelled as the titrant against MLL3 PHD4; also called MLL3_(PHD2/3); MLL3 PHD2/3; source: E. coli BL21-CodonPlus, purified (glutathione agarose, PreScission cleavage; unlabeled proteins also SEC)
T1 sequence (looked up): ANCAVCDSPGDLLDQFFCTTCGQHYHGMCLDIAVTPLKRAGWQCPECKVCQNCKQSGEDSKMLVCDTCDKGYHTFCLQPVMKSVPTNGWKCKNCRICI

MLL3_(PHD2/3) D400K = biological target: T2, MLL3_(PHD2/3) D400K (human, UniProt Q8NEZ4 342-439, D400K); assay: not stated; fluorescence spectroscopy or NMR: the legends of Fig. 3c and Fig. 4b say that values marked (a) are from NMR and the others from fluorescence; the text does not tell which for these pairs
T2 construct: human MLL3 (KMT2C), aa 342-439; source: E. coli BL21-CodonPlus, purified as WT
T2 sequence (looked up): T1 sequence (looked up) with D59K

MLL4_(PHD2/3) D285K = biological target: T3, MLL4_(PHD2/3) D285K (human, UniProt O14686 227-324, D285K); assay: as above
T3 construct: human MLL4 (KMT2D), aa 227-324; source: E. coli BL21-CodonPlus, purified as WT
T3 sequence (looked up): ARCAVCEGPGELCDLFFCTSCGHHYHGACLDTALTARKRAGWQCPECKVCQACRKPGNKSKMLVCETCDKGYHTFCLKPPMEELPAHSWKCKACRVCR

MLL3_(PHD2/3) D372K = biological target: T4, MLL3_(PHD2/3) D372K (human, UniProt Q8NEZ4 342-439, D372K); assay: as above
T4 construct: human MLL3 (KMT2C), aa 342-439; source: E. coli BL21-CodonPlus, purified as WT
T4 sequence (looked up): T1 sequence (looked up) with D31K

B1: ASXL2 peptide (residues 650-670 of ASXL2) (peptide, UniProt Q76L83 650-670, looked up)
peptide: NRTGARTLADIKAKAQLVKAQ
notes: also called ASXL2 (aa 650-670); MBH of ASXL2; source: synthetic peptide (SynPeptide)
What does the source list for B1?
Kd [1]: 1.4 µM; fold reduction in binding against wild type MLL3_(PHD2/3) (MLL3_(PHD2/3) D400K): 400 fold; Kd (MLL4_(PHD2/3) D285K): ~1700 µM; fold reduction in binding against wild type MLL3_(PHD2/3) (MLL3_(PHD2/3) D372K): ~40 fold
